The nanobody polyreactivity screen of Harvey et al. (2022)

Assay: yeast display, Sf9 membrane polyspecificity reagent, FACS + sequencing; frameworks hold sequencing errors
Method in brief: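 In a synthetic yeast display library (Saccharomyces cerevisiae BJ5465), nanobody expression was induced with galactose for 36–48 hours. FACS gates were set low and high (top ~1%) using anti-HA fluorescence for expression and streptavidin fluorescence for binding of the Sf9 membrane reagent. Each polyreactivity label is drawn from the gate of origin.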

Row | Sequence | polyreactivity (PSR sort gate)
1 | QVQLVESGGGLVQAGGSLRLSCAASGFTFSGHTMGWSRQAPGKERELVATISRTGGITYYADSVKGRFTISRDNAKNTVLLQMNSLKPEDTAVYYCNRRYYYFVYPDDYWGQGTQVTVSS | high polyreactivity
2 | QVQLVESGGGLVQAGGSLRLSCAASGFTFSGNALGWYRQARGKERELVAAISVGGGRTYYADSVKGRFTISRDNAKNTVYLQMNSLKPEDTAVYYCARYTRRSETWRYDYWGQGTQVTVSS | high polyreactivity
3 | QVQLVESGGGLVQAGGSLRLSCAASGFTFSGYDMGWYRQAPGKERELVAGISSGGVSTTYADSVKGRFTISRDNAKNTVYLQMNSLKPEDTAVYYCSTSGPQYYSRNFDYWGQGTQVTVSS | low polyreactivity
4 | QVQLVESGGGLVQAGGSLRLSCAASGFTFSHYAMGWYRQAPGKERELVAAISRRGSSTYYADSVKGRFTISRDNAKNTVYLQMNSLKPEDTAVYYCNVERLTGVWYYQRPSQDGYWGQGTQVTVSS | high polyreactivity
5 | QVQLVESGGGLVQAGGSLRLSCAASGFTFSKYAMGWYLQAPGKERELVAAISRRGGSTYYADSVKGRFTISRDNAKNTVYLQMNSLKPEDTAVYYCAARYSVGTGYGYWGQGTQVTVSS | high polyreactivity
6 | QVQLVESGGGLVQAGGSLRLSCAASGFTFSKYGMGWYRQAPGKERELVAAISSGGSTHYADSVKGRFTISRDNAKNTVYLQMNILKPADTAVYYCNASSKFAKPQRYYWGQGTQVTVSS | low polyreactivity
7 | QVQLVESGGGLVQAGGSLRLSCAASGFTFSLYAMGWYRQAPGKERELVASIDSDGVSTYYADSVKGRFTISRDNAKNTVYLQMNSLKPEDTAVYYCAADLWWGYISGPVRGRGYYWGQGTQVTVSS | low polyreactivity
8 | QVQLVESGGGLVQAGGSLRLSCAASGFTFSLYAMGWYRQAPGKERELVASISRSGGSTYYADSVKGRFTISRDNAKNTVYLQMNSLKPEDTAVYYCAARWRPYKYDSWGQGTQVTVSS | high polyreactivity
9 | QVQLVESGGGLVQAGGSLRLSCAASGFTFSNYTMGWYRQAPGKERELVAAIRSSGGRTYYADSVKGRFTISRDNAKNTVYLQMDSLKPEDTAVYYCNAEYRTDGGYWVQGTQVTVSS | low polyreactivity
10 | QVQLVESGGGLVQAGGSLRLSCAASGFTFSPNAMRWYRQAPGKERELVAAIDWSGDRTYYADSVKGRFTISRDNAKNTVYLQMNSLKPEDTAVYYCAADIRDPGVPMDYWGQGTQVTVSS | low polyreactivity
11 | QVQLVESGGGLVQAGGSLRLSCAASGFTFSRYAMGWYRPAPGKERELVAAITSSGGSTYYADSVKGRFTISRDNAKNTVYLQMNSLKPEDTAVYYCAAGKYTASNGYGYWGQGTQVTVSS | high polyreactivity
12 | QVQLVESGGGLVQAGGSLRLSCAASGFTFSSNAMGWYRQAPGKEREFVAAISFNSTSTYYADSVKGRFKISRDNAKNTVYLQMNSLKPEDTAVYYCAADVPRVQSEPEYDYWGQGTQVTVSS | low polyreactivity
13 | QVQLVESGGGLVQAGGSLRLSCAASGFTFSSYAMGWYRQAPGKERELDAAITRNGGSTYYADSVKGRFTISRDNAKNTDYLQMNSLNPEYTAVYNCAAQYPRQRYGYYWPYYKYYYWGHGTQVTVSS | high polyreactivity
14 | QVQLVESGGGLVQAGGSLRLSCAASGFTFSSYAMGWYRQAPGKERELVAAISGSGDRTRYADSVKGRFTISRDNAKNTVYLQMNSLKPEDTAVYYCAAKSPGSQTAMDYWGQGTQVTVSS | high polyreactivity
15 | QVQLVESGGGLVQAGGSLRLSCAASGFTFSSYAMGWYRQAPGKERELVAAITISGGRTYYADSVKGRFTISRDNAKNTVYLQMNSLKPEDTAVYYCAALYVEGQNHYGYWGQGTQVTVSS | high polyreactivity
16 | QVQLVESGGGLVQAGGSLRLSCAASGFTFSSYAMGWYRQAPGKERELVARISSGSSTNYADSVKGRFTISRDNAKNTVYLQMNSLKPEDTAVYYCAARYTARRQSYGYWGQGTQVTVSS | high polyreactivity
17 | QVQLVESGGGLVQAGGSLRLSCAASGFTFSTYAMGWYRQAPGKEREFVAAISRGGTRTYYADSVKGRFTISRDNAKNTVYLQMTSLKPEDTAVYYCAARSKARNGYDYWGQGTQVTVSS | high polyreactivity
18 | QVQLVESGGGLVQAGGSLRLSCAASGFTFSTYAMGWYRQAPGKERELVAAISGSGGRTYYADSVKGRFKISRDNAKNTVYLQMNSLKPEDTAVYYCAALTYSTVLGFDYWGQGTQVTVSS | high polyreactivity
19 | QVQLVESGGGLVQAGGSLRLSCAASGFTFSWYAMGWYRPAPGKERELVAAISWDGDSTYYADSVKGRFTISRDNAKNTVYLQMNSLIPEDTAVYYCAADFYYYWDGYDYWGQGTQVTVSS | high polyreactivity
20 | QVQLVESGGGLVQAGGSLRLSCAASGFTFSWYAMGWYRQAPGKERELVAAISRRGGSTYYADSVKGRFTISRDIAKNTVYLQMNSLKPEDTAVYYCNAALTYDYNYWGQGTQVTVSS | high polyreactivity
21 | QVQLVESGGGLVQAGGSLRLSCAASGFTFSWYAMGWYRQAPGKERELVAAITSGGSTYYADSVKGRFTLSRDNAKNTVYLQMISLKPEDTAVYYCNKAFASIAPVWSGYDFWGQGTQVTVSS | low polyreactivity
22 | QVQLVESGGGLVQAGGSLRLSCAASGFTFSYYAMGWYRQAPGHEREFVAAIIWNGTSTYYADSVKGRFTISRDNAKNTVYLQMNSLKPEDTAVYYCAAYDVHDYDYWGQGTQVTVSS | high polyreactivity

Row | Sequence | polyreactivity (PSR sort gate)
23 | QVQLVESGGGLVQAGGSLRLSCAASGFTFSYYAMGWYRQAPGKERELVAAISFGGSTYYADSVKGRFTISRDNAKNTVYLQMNSLKPEDTAVYYCAVYGDSYWGAYYYSDGYWGQGTQVTVSS | low polyreactivity
24 | QVQLVESGGGLVQAGGSLRLSCAASGFTFSYYAMGWYRQAPGKERELVAAISWSGTATYYADSVKGRFTISRDNAKNTVYLQMNSLKPEDTAVYYCAAGYSASGKVDYRGQGTQVTVSS | high polyreactivity
25 | QVQLVESGGGLVQAGGSLRLSCAASGFTFSYYAMGWYRQAPGKERELVAAITSSGARTYYADSVKGRFTISRDNAKNTVYFQMNSLKPEDTAVYYCAAEVFRTRTWEYYYWGQGTQVTVSS | high polyreactivity
26 | QVQLVESGGGLVQAGGSLRLSCAASGFTFSYYAMGWYRQAPGKERELVASISRSGNTYYADSVKGRFTISRDNAKNTVYLQMNSLKPEDTAVYYCAADQVYASTHVWGYDYWGQGTQVTVSS | high polyreactivity
27 | QVQLVESGGGLVQAGGSLRLSCAASGFTFSYYAMGWYRQAPRKERELVAAISGGGGTNYADSVKGRFTISRDNAKNTVYLQMNSLKPEDTAVYYCATDQFTQPSHRRDYWGQGTQVTVSS | low polyreactivity
28 | QVQLVESGGGLVQAGGSLRLSCAASGFTFSYYDMGWYRQAPGKERELVAAITQSGGSTYYADSVKGRFTISRDNAKNTVYLQMNSLKPEDTEVFYCAALTYRWSARDYWGQGTQVTVSS | high polyreactivity
29 | QVQLVESGGGLVQAGGSLRLSCAASGFTFTAYAMGWYRQAPGKERELVAAISYRGGRTNYAYSVKGRFTISRDYAKYTVYLQMNSLKPEDTAVYYCAARPRISTREMDYWGQGTQVTVSS | high polyreactivity
30 | QVQLVESGGGLVQAGGSLRLSCAASGFTFTAYDMGWYRQAPGKERELVAAISGSGGTTYYADSVKGRFTISRDNAKNTVYLQMNSLKPEDTAVYYCAVDVPSPGGYDSWGQGTQVTVSS | low polyreactivity
31 | QVQLVESGGGLVQAGGSLRLSCAASGFTFTENVMGWYRQAPGKEREFVAAITYIGGRTYYADSVKGRFTISRDNAKNTVYLQMNSLKPEDTAVYYCAADWAYYVASYLYYTFAYWGQGTQVTVSS | low polyreactivity
32 | QVQLVESGGGLVQAGGSLRLSCAASGFTFTPYGMGWYRQAPGKERELVAAITWNGGRTYYADSVKGRFTISRDNAKNTVYLQMNSLKPEDTAVYYCAAVAWSWQKRGYWGQGTQVTVSS | high polyreactivity
33 | QVQLVESGGGLVQAGGSLRLSCAASGFTFTRNAMGWYRQAPGKERELVAAISSSAGSTSYADSVKGRFTISRDNAKNPVYLQMNRLKPEDTAVYYCATEGSYYSWVGKVGYRYQYHYWGQGTQVTVSS | high polyreactivity
34 | QVQLVESGGGLVQAGGSLRLSCAASGFTFTRYAMGWYRPAPGKERELVAAISSRGGSTNYADSVKGRFTISRDNAKNTVYLQMNSLKPEDTAVYYCAAVYYRLRYEYDYWGQGTQVTVSS | high polyreactivity
35 | QVQLVESGGGLVQAGGSLRLSCAASGFTFTRYAMGWYRQAPGKERELVAAISRIGGSTYYADSVKGRFTISRDNAKNTVYLQMNSLKPEDTAVYYCAASKVPSYDYWGQGTQVTVSS | high polyreactivity
36 | QVQLVESGGGLVQAGGSLRLSCAASGFTFTRYAMGWYRQAPGKERELVAAISRRGGSTYYADSVKGRFTISRDNAKNTVYLQMNSLKPEDTAVYYCAKDAGSRTVREFGYWGQGTQVTVSS | high polyreactivity
37 | QVQLVESGGGLVQAGGSLRLSCAASGFTFTRYAMGWYRQAPGKERELVASISTSGGRTYYADSVKGRFTISRDNAKNTVYLQMNSLKPEDTAVYYCAASWNTQSRGWQYDYWGQGTQVTVSS | low polyreactivity
38 | QVQLVESGGGLVQAGGSLRLSCAASGFTFTTNAMGWYRQAPGKERELVAAISFSGGTTYYADSVKGRFTISRDNAKNTVYLQMNSLKPEDTAVYYCPAQPGQAWWSTEHDDYWGQGTQVTVSS | low polyreactivity
39 | QVQLVESGGGLVQAGGSLRLSCAASGFTFTYNAMGWDRQAPGKERELVAAISWSGGSTRYADSVKGRFTISRDNAKKTVYFQMNSLKPEDTGVYYFNKYTYRGRTGEINYWGQGTQVTVSS | high polyreactivity
40 | QVQLVESGGGLVQAGGSLRLSCAASGFTFTYYALGGYRQAPGKERELVARIRGRSGSTYYADSVKGRFTISRDNAKNTVYLQMNSLKPEDTAVYYCNADFNRTVAGTPEVDYWGQGTQVTVSS | high polyreactivity
41 | QVQLVESGGGLVQAGGSLRLSCAASGFTFTYYAMGWYRHAPGKERELVAAITNSGGTTYYADSVKGRFTISRDNAKNTVYLQMNSLKPEDTAVYYCAAVPYYVLARSFYRYGYWGQGTQVTVSS | low polyreactivity
42 | QVQLVESGGGLVQAGGSLRLSCAASGFTFTYYAMGWYRQAPGKERELVAGITRSGGSTYYADSVKGRFTISRDNAKNTVYLHMNSLKPEDTAVYYCAAVGSLYYYRYDYWGQGTQVTVSS | high polyreactivity
43 | QVQLVESGGGLVQAGGSLRLSCAASGFTFTYYAMGWYRQAPGTERELVAAISWRGTSTFYADSVKGRFTISRDNAKNTVYLQMNSLKPEDTAVYYCAAVGQWGYGYWGLGTQVTVSS | high polyreactivity
